The source of these data is patent US20190127432A1.

The target of the test is FSH receptor on CHO-FSHR cells (Homo sapiens (Human)) (UniProt P23945). Nature of the test: cell-based or functional assay.
Sequence of UniProt P23945 (P23945 18-695 limits assumed, form in doubt): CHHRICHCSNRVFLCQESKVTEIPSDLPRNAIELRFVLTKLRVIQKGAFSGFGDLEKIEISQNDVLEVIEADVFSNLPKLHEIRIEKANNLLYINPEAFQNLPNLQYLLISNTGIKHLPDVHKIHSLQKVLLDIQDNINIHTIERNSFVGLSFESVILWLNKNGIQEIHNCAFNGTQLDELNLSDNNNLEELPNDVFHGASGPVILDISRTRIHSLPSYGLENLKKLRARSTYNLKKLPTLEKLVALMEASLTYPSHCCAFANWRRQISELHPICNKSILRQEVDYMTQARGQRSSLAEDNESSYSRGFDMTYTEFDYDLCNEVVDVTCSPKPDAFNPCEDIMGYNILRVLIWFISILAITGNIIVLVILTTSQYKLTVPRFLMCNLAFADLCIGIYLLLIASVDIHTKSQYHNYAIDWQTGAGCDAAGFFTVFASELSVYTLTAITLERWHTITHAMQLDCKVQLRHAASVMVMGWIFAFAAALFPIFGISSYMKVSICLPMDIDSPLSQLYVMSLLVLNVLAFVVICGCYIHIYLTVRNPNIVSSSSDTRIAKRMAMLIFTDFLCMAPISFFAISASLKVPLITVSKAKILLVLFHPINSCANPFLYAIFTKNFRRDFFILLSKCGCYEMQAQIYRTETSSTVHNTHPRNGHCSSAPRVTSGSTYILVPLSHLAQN

Elonva (ligand): the EC50 (ng/ml), cAMP stimulation in CHO-FSHR cells turned out to be 4.15 ng/mL; the Potency difference, cAMP stimulation in CHO-FSHR cells is 1.3 fold; the Vmax (%), cAMP stimulation in CHO-FSHR cells came to 99.3%; the Vmax (pmol/ml), cAMP stimulation in CHO-FSHR cells was 293 pmol/mL.
